# B1: SRSF1-m4: quadruple SRSF1 point mutant aa11-196, dominant negative, does not interact with TAP/NXF1 (protein)
# chain: AGNNDCRIYVGNLPPDIRTKDIEDVFYKYGAIRDIDLKNRRGGPPFAFVEFEDPRDAEDAVYGRDGYDYDGYRLRVEFPASGAGTGRGGGGGGGGGAPRGRYGPPSAASENRVVVSGLPPSGSWQDLKDHMREAGDVCYADVYRDGTGVVEFVRKEDMTYAVRKLDNTKFRSHEGETAYIRVKVDG
# modifications: left off: small tags and cut ends
# How the values were obtained:
# [1] = target: T1, NXF1 (Mus musculus, UniProt Q99JX7); experiment: Anti-FLAG co-immunoprecipitation of endogenous NXF1 in N2A cells; assay type: binding; conditions: FLAG-tagged protein, 48 h
# T1 construct: endogenous in cells; host or cells: Neuro-2a (N2A)
# T1 sequence (Q99JX7 1-618): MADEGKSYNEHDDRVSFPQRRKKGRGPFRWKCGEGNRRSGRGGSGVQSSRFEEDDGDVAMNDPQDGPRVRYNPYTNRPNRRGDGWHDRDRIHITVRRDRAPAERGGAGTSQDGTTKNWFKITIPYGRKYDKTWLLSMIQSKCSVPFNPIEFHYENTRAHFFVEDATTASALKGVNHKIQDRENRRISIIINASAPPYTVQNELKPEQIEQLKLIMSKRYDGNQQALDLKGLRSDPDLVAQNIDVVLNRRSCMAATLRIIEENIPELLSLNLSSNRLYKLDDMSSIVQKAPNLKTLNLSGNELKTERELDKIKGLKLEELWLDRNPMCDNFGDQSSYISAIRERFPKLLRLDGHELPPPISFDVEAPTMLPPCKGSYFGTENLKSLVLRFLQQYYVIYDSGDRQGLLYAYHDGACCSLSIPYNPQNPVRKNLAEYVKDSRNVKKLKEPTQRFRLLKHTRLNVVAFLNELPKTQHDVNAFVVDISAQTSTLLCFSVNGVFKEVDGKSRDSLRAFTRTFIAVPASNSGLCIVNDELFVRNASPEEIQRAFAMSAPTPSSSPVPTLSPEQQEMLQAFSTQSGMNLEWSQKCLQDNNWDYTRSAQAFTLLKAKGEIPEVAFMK
# Experimental: Cells were split into 1×10 cm plates/treatment (1.5×10^6 cells/plate) and transfected with 15 μg p3×FLAG, p3×FLAG/SRSF1 (11-196), p3×FLAG/SRSF1 (11-196)-m2 or p3×FLAG/SRSF1(11-196)-m4 using 3 μg PEI/1 μg DNA and one tenth medium volume OptiMEM.
# Proteins were extracted from Neuro-2a cells 48 hours after transfection. Cells were briefly washed in ice cold PBS, scraped into 500 μl ice cold lysis buffer, passed through a 21G gauge needle 10 times and left to lyse on ice for 10 minutes. Lysed cells were cleared by centrifugation at maximum speed at 4° C. for five minutes and protein extracts were quantified using Bradford Reagent. 2 mg of total protein in 1 ml lysis buffer was incubated with 30 μl anti-FLAG® M2 affinity resin slurry (Sigma A2220) (which had been blocked overnight with 1% BSA in IP lysis buffer) for 2 hours at 4° C. on a rotating wheel. […] 30 μg total protein and 15 μl captured protein complexes were resolved by SDS-PAGE, electroblotted onto nitrocellulose membrane and probed using FLAG, NXF1 clone 53H8 [1:2000] (Abcam ab50609) and […]-tubulin.
# [2] = system: G4C2×5 repeat RNA; experiment: Protein:RNA UV crosslinking assay, sense probe; assay type: binding; conditions: purified recombinant hexa-histidine-tagged protein
# Experimental: (§1) Recombinant proteins expressed in 1.51 of E. coli BL21 (DE3)-RP (Novagen) cell cultures were purified by IMAC chromatography on TALON/Cobalt beads (Clontech) in 1M NaCl containing buffers to prevent the potential co-purification of E. coli RNA (Lysis buffer: 50 mM TRIS-HCl pH8.0, 1M NaCl, 0.5% Triton X-100; Wash buffer: 50 mM TRIS-HCl pH8.0, 1M NaCl, 0.5% Triton X-100, 5 mM imidazole). […] Binding reactions were resolved on SDS-PAGE prior to analysis by Coomassie staining and Phosphoimaging.
# [3] = system: C4G2×5 repeat RNA; experiment: Protein:RNA UV crosslinking assay, antisense probe; assay type: binding; conditions: purified recombinant hexa-histidine-tagged protein
# Experimental: as §1
# [4] = system: G4C2-sense or C4G2-antisense repeat transcripts; experiment: RNA immunoprecipitation (RIP) assays in N2A cells; assay type: binding, mouse; conditions: 15 vs 38/39 repeats
# Experimental: Cells were split into 1×T-175 flasks/treatment (5×10^6 cells/plate) and transfected with 30 μg p3×FLAG, p3×FLAG/SRSF1 (11-196) or p3×FLAG/SRSF1 (11-196)-m4 and 10 μg pcDNA 3.1/RAN-G4C2×15-sense, RAN-G4C2×38-sense, RAN-G4C2×15-antisense or RAN-C4G2×39-antisense using 3 μg PEI/1 μg […] and one tenth volume OptiMEM.
# Protein-RNA complexes were extracted from Neuro-2a cells 48 hours after transfection. Protein-RNA complexes were cross-linked using 1% formaldehyde for 10 minutes, shaking at room temperature. Residual formaldehyde was quenched with 250 mM Glycine at room temperature for 5 minutes, shaking. Cross-linked cells were subsequently washed in ice cold DEPC treated PBS and scraped into ice cold RNase free lysis buffer (DEPC treated water containing 50 mM Hepes pH7.5, 150 mM NaCl, 10% glycerol, 0.5% triton X-100, 1 mM EDTA, 1 mM DTT, 1 μl RNase inhibitor, protease inhibitor cocktail). Cells were passed through a 21G gauge needle 10 times and left to lyse on ice for 10 minutes, followed by centrifugation at maximum speed at 4° C. for five minutes and quantification using Bradford Reagent. 2.5 mg of total protein at a 1 mg/ml concentration was incubated with 40 μl anti-FLAG® M2 affinity resin slurry (which had been blocked overnight with 1% BSA and 5 μl/ml ssDNA) overnight at 4° C. on a rotating wheel. One 15th of the total protein extract was retained for an input sample. […]
molecule,measurement,setting,value
B1,co-immunoprecipitation of endogenous NXF1,[1],severely impaired
same,direct interaction with sense G4C2×5 repeat RNA,[2],retains the ability to directly interact
same,direct interaction with antisense C4G2×5 repeat RNA,[3],retains the ability to directly interact
same,immunoprecipitated repeat transcripts,[4],length-dependent repeat-RNA sequestration
